Values belong to the binder of their own block, whether it stands above or below them.
How the values were obtained:
murine IL-11 [1] = biological target: T1, murine IL-11 (mouse, UniProt P47873 22-199); assay: SPR 37 C, antibody captured, IL-11 as analyte
T1 construct: Invigate, e.g. lot #C210819-09; biotinylated where coated in the ELISA; also called mIL-11; mIL11
T1 sequence: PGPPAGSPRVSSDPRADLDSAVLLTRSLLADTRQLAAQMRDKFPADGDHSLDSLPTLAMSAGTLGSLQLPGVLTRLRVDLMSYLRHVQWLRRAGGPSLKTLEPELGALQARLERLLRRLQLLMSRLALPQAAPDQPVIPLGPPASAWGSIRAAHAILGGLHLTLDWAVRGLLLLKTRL
Procedure: To assess the binding kinetics and affinity of anti-IL-11 antibodies as well as their species cross-reactivity profile, binding assays were conducted using surface plasmon resonance (SPR). Binding assays were performed on a Biacore T200 instrument or on a Biacore 8K+ instrument (Cytiva) at 37° C. using assay buffer HBS EP+, 300 mM NaCl, 1 mg/ml BSA, 0.05% NaN3. Antibodies were captured either via anti-human Fc IgGs (“Human antibody capture kit”, Order No. BR100839, Cytiva) or via anti-mouse Fc IgGs (“Mouse antibody capture kit, Order No. BR100383, Cytiva) covalently amine coupled to a Series S CM5 sensor chip (Cytiva) depending on the isotype. The amine coupling was carried out according to the manufacturer's instructions using 1-ethyl-3-(3-dimethylaminopropyl) carbodiimide hydrochloride (EDC), N-hydroxysuccinimide (NHS) and ethanolamine HCl, pH 8.5 (“Amine Coupling Kit” BR-1000-50, Cytiva.). Human, mouse, cynomolgus or rat IL-11 was used as analyte at several dilutions within the concentration range from 0.05-200 nM. For binding assays with only one concentration 200 nM IL-11 was used. The sensor surface was regenerated with glycine pH 1.7 after each antigen injection. Obtained sensorgrams were double referenced (subtraction of reference flow cell signal and buffer injection) and were fitted to a 1:1 Langmuir binding model to derive kinetic data using the Biacore T200 Evaluation software or the Biacore Insight software. If no value is reported, there was either no binding or very low binding and multiphasic binding behavior. Values below 1E-12 were considered to be below the dynamic range of the instrument and set to <1E-12.

rat IL-11 = biological target: T2, rat IL-11 (rat, UniProt Q99MF5 22-199); assay: cell-based or functional assay
T2 sequence: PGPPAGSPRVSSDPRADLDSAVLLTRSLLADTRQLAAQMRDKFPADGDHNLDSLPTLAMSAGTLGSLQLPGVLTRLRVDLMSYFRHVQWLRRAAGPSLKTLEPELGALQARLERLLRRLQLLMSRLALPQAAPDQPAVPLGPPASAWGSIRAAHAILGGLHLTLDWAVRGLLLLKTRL

murine IL-11 [2] = biological target: T1, murine IL-11; assay: cell-based or functional assay
murine IL-11 [3] = biological target: T1, murine IL-11; assay: Di-complex ELISA, competitor canine IL11RA-Fc on coated IL-11;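 also: signal drop relative to signal at lowest antibody concentration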
Procedure: The assay is performed using streptavidin coated microtiter plates (Greiner bio-one, #781997). In a first step, 10 nM biotinylated mouse IL-11 (Invigate, Germany, e.g., lot #C210819-09) or human IL-11 (Invigate, Germany, e.g., lot #C121021-19) is coated in 25 μl PBS on the plate at 4° C. overnight. Next day, the plate is washed three times with 50 μl PBST and then blocked with 50 μl SmartBlock (Candor, #113125) for one hour at room temperature (RT). After additional three washes with PBST, 25 μl of a mixture of the murine anti IL-11 antibody and recombinant canine IL11RA-Fc fusion protein (Sino Biological, #70078-D02H) in PBS-T, 10% Smartblock are added simultaneously to the plate and incubated for one hour at RT. […] After three additional washes with PBS-T, 25 μl anti-human-POD (Sigma, #A0170) in PBS-T, 10% Smartblock is added and incubated for 1 hour at RT. After a final three washes with PBS-T, 25 μl AmplexRed (Fisher Scientific, A12222), 1/1000 in PBS, 0,003% H₂O₂, is added as substrate and incubated for 15 min at RT in the dark. Then, the fluorescence is measured with a plate reader at 535/595 nm. Signals from dose responses were used to calculate IC50 values (GraphPad Prism). Efficacy was calculated as [(signal measured at lowest antibody concentration−signal measured at the highest antibody concentration)×100] divided by (signal measured at lowest antibody concentration−signal measured in the absence of IL11Ra).
IgG converted antibodies were subjected to the experimental assay procedure described in Example 18.

human IL-11 [4] = biological target: T3, human IL-11 (human, UniProt P20809 22-199); assay: cell-based or functional assay
T3 sequence: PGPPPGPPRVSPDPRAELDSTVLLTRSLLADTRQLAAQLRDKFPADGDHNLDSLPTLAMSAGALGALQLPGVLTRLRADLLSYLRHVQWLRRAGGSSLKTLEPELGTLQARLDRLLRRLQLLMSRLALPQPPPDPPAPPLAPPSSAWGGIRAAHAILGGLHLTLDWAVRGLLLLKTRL

murine IL-11 [5] = biological target: T4, murine IL-11 (mouse, UniProt P47873 22-199); assay: cell-based or functional assay; remark: listed apart in the source
T4 sequence: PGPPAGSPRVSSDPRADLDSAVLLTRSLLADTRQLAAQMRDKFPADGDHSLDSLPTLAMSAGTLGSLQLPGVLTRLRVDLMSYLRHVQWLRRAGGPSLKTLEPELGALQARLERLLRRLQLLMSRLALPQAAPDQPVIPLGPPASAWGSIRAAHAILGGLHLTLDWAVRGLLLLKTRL

human IL-11 [6] = biological target: T3, human IL-11; assay: cell-based or functional assay; remark: listed apart in the source
murine IL-11 [7] = biological target: T4, murine IL-11; assay: cell-based or functional assay; remark: listed apart in the source
[8] = biological target: T5, human IL2Ra (Peprotech, Germany, #200-02RC) (human, UniProt P01589 22-240); assay: direct binding ELISA on coated IL2Ra
T5 construct: Coated on the ELISA plate; also called hIL2Ra; IL-2 receptor alpha
T5 sequence (looked up): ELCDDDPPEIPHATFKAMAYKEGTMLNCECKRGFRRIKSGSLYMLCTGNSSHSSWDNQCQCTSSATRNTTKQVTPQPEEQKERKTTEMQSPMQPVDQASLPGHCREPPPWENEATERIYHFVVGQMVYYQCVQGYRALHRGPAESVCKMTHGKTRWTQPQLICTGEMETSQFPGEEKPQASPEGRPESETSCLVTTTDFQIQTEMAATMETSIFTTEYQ

Kd (murine IL-11 [1]): 41 nM
RGA Efficacy (%) (rat IL-11): 31.8%
RGA Efficacy (%) (murine IL-11 [2]): 59.4%
RGA IC50 (murine IL-11 [2]): 16 nM
Efficacy (%) (murine IL-11 [3]): 2.4%
B1: TPP-18087 (antibody, mouse IgG1, V domains shown)
VH: EVQLLESGGGLVQPGGSLRLSCAASGFTFSHYDMNWLRQAPGKGLEWVGVISYDGSNKFYADFVKGRFTISRDNSKNTLYLQMNSLRAEDTAVYYCARTPGSHFDYWGQGTLVTVSS
VL: QSVLTQPPSASGTPGQRVTISCSGSSSNIGNNAVNWYQQLPGTAPKLLIYYDDLLPSGVPDRFSGSKSGTSASLAISGLRSEDEADYYCSAWDDSLNGVVFGGGTKLTVLG
notes: mIgG1, Lambda

IC50, RGA 1 (human IL-11 [4]): 61 nM
IC50, RGA 2 (human IL-11 [4]): 76 nM
IC50, RGA 1 (murine IL-11 [5]): 27 nM
IC50, RGA 2 (murine IL-11 [5]): 23 nM
RGA potency (mean) (human IL-11 [6]): < 170 nM
RGA potency (mean) (murine IL-11 [7]): < 170 nM
B2: TPP-31289 (antibody, IgG4, V domains shown)
VH: EVQLLESGGGLVQPGRSLRLSCAASGFTFSHYDMNWLRQAPGKGLEWVGVISYDGSNKFYADFVKGRFTISRDNSKNTLYLQMNSLRAEDTAVYYCARTPGSHFDYWGQGTLVTVSS
VL: QSVLTQPPSASGTPGQRVTISCSGSSSNIGNNAVNWYQQLPGTAPKLLIYYDDLLPSGVPDRFSGSKSGTSASLAISGLRSEDEADYYCSAWDDSLNGVVFGGGTKLTVL

binding result [8]: no binding (tested: 3.3E-7 [M] antibody)
B4: TPP-29519 (antibody, mouse IgG1)
heavy: QVQLVESGGGVVQPGRSLRLSCAASGFTFSHYDMHWVRQAPGKGLEWVAVISYHGSVKFYADSVKGRFTISRDNSKNTLYLQMNSLRAEDTAVYYCARTPGFHFDYWGQGTLVTVSSAKTTPPSVYPLAPGSAAQTNSMVTLGCLVKGYFPEPVTVTWNSGSLSSGVHTFPAVLQSDLYTLSSSVTVPSSTWPSETVTCNVAHPASSTKVDKKIVPRDCGCKPCICTVPEVSSVFIFPPKPKDVLTITLTPKVTCVVVDISKDDPEVQFSWFVDDVEVHTAQTQPREEQFNSTFRSVSELPIMHQDWLNGKEFKCRVNSAAFPAPIEKTISKTKGRPKAPQVYTIPPPKEQMAKDKVSLTCMITDFFPEDITVEWQWNGQPAENYKNTQPIMDTDGSYFVYSKLNVQKSNWEAGNTFTCSVLHEGLHNHHTEKSLSHSPGK
light: QSVLTQPPSASGTPGQRVTISCSGSSSNIGSNYVSWYQQLPGTAPKLLIYYDDLRPSGVPDRFSGSKSGTSASLAISGLRSEDEADYYCSAWDDSLSGVVFGGGTKLTVLGQPKSSPSVTLFPPSSEELETNKATLVCTITDFYPGVVTVDWKVDGTPVTQGMETTQPSKQSNNKYMASSYLTLTARAWERHSSYSCQVTHEGHTVEKSLSRADCS
notes: mIgG1, Lambda

binding result [8]: no binding (tested: 3.3E-7 [M] antibody)
B5: TPP-29521 (antibody, mouse IgG1)
heavy: QVQLVESGGGVVQPGRSLRLSCAASGFTFSHYDMHWVRQAPGKGLEWVAVISYEGSNKFYADSVKGRFTISRDNSKNTLYLQMNSLRAEDTAVYYCARTPGFHFDYWGQGTLVTVSSAKTTPPSVYPLAPGSAAQTNSMVTLGCLVKGYFPEPVTVTWNSGSLSSGVHTFPAVLQSDLYTLSSSVTVPSSTWPSETVTCNVAHPASSTKVDKKIVPRDCGCKPCICTVPEVSSVFIFPPKPKDVLTITLTPKVTCVVVDISKDDPEVQFSWFVDDVEVHTAQTQPREEQFNSTFRSVSELPIMHQDWLNGKEFKCRVNSAAFPAPIEKTISKTKGRPKAPQVYTIPPPKEQMAKDKVSLTCMITDFFPEDITVEWQWNGQPAENYKNTQPIMDTDGSYFVYSKLNVQKSNWEAGNTFTCSVLHEGLHNHHTEKSLSHSPGK
light: QSVLTQPPSASGTPGQRVTISCSGSSSNIGSNYVSWYQQLPGTAPKLLIYYDDLRPSGVPDRFSGSKSGTSASLAISGLRSEDEADYYCSAWDDSLSGVVFGGGTKLTVLGQPKSSPSVTLFPPSSEELETNKATLVCTITDFYPGVVTVDWKVDGTPVTQGMETTQPSKQSNNKYMASSYLTLTARAWERHSSYSCQVTHEGHTVEKSLSRADCS
notes: mIgG1, Lambda

The remaining lines, values behind:

B3: TPP-29523 (antibody, mouse IgG1)
heavy: QVQLVESGGGVVQPGRSLRLSCAASGFTFSHYDMHWVRQAPGKGLEWVAVISYEGSVKFYADSVKGRFTISRDNSKNTLYLQMNSLRAEDTAVYYCARTPGFHFDYWGQGTLVTVSSAKTTPPSVYPLAPGSAAQTNSMVTLGCLVKGYFPEPVTVTWNSGSLSSGVHTFPAVLQSDLYTLSSSVTVPSSTWPSETVTCNVAHPASSTKVDKKIVPRDCGCKPCICTVPEVSSVFIFPPKPKDVLTITLTPKVTCVVVDISKDDPEVQFSWFVDDVEVHTAQTQPREEQFNSTFRSVSELPIMHQDWLNGKEFKCRVNSAAFPAPIEKTISKTKGRPKAPQVYTIPPPKEQMAKDKVSLTCMITDFFPEDITVEWQWNGQPAENYKNTQPIMDTDGSYFVYSKLNVQKSNWEAGNTFTCSVLHEGLHNHHTEKSLSHSPGK
light: QSVLTQPPSASGTPGQRVTISCSGSSSNIGSNYVNWYQQLPGTAPKLLIYYDDLRPSGVPDRFSGSKSGTSASLAISGLRSEDEADYYCSAWDDSLSGVVFGGGTKLTVLGQPKSSPSVTLFPPSSEELETNKATLVCTITDFYPGVVTVDWKVDGTPVTQGMETTQPSKQSNNKYMASSYLTLTARAWERHSSYSCQVTHEGHTVEKSLSRADCS
notes: mIgG1, Lambda
binding result [8]: no binding (tested: 3.3E-7 [M] antibody)

B6: TPP-29520 (antibody, mouse IgG1)
heavy: QVQLVESGGGVVQPGRSLRLSCAASGFTFSHYDMHWVRQAPGKGLEWVAVISYSGSVKFYADSVKGRFTISRDNSKNTLYLQMNSLRAEDTAVYYCARTPGSHFDYWGQGTLVTVSSAKTTPPSVYPLAPGSAAQTNSMVTLGCLVKGYFPEPVTVTWNSGSLSSGVHTFPAVLQSDLYTLSSSVTVPSSTWPSETVTCNVAHPASSTKVDKKIVPRDCGCKPCICTVPEVSSVFIFPPKPKDVLTITLTPKVTCVVVDISKDDPEVQFSWFVDDVEVHTAQTQPREEQFNSTFRSVSELPIMHQDWLNGKEFKCRVNSAAFPAPIEKTISKTKGRPKAPQVYTIPPPKEQMAKDKVSLTCMITDFFPEDITVEWQWNGQPAENYKNTQPIMDTDGSYFVYSKLNVQKSNWEAGNTFTCSVLHEGLHNHHTEKSLSHSPGK
light: QSVLTQPPSASGTPGQRVTISCSGSSSNIGSNYVNWYQQLPGTAPKLLIYYDDLRPSGVPDRFSGSKSGTSASLAISGLRSEDEADYYCSAWDDSLSGVVFGGGTKLTVLGQPKSSPSVTLFPPSSEELETNKATLVCTITDFYPGVVTVDWKVDGTPVTQGMETTQPSKQSNNKYMASSYLTLTARAWERHSSYSCQVTHEGHTVEKSLSRADCS
notes: mIgG1, Lambda
binding result [8]: no binding (tested: 3.3E-7 [M] antibody)

Reference: patent publication US20240317847A1 (Bayer, published 2024)
